One experiment has as its target HLA-C*07:02. The experiment is described as follows: IEDB peptide-MHC binding, purified MHC/direct/fluorescence; filed as Kd, often an IC50 or EC50 that approximates it; ≥ and ≤ were set here for values at or beyond the usual limits of such assays. The following applies: source organism: SARS-CoV1.
Another experiment has as its target HLA-A*24:02. The experiment can be described thus: IEDB peptide-MHC binding, purified MHC/competitive/fluorescence; filed as Kd, often an IC50 or EC50 that approximates it; ≥ and ≤ were set here for values at or beyond the usual limits of such assays. The following applies: source organism: SARS-CoV1.
The target in the next experiment is HLA-A*01:01. The experiment is described as follows: IEDB peptide-MHC binding, purified MHC/competitive/radioactivity; filed as Kd, often an IC50 or EC50 that approximates it; ≥ and ≤ were set here for values at or beyond the usual limits of such assays. Conditions: source organism: SARS coronavirus Tor2.
The target in another experiment is HLA-A*23:01. The description is as above. Conditions: source organism: SARS coronavirus Tor2.
Another experiment concerns the target HLA-A*26:01. Described as above. Conditions: source organism: SARS coronavirus Tor2.
The next experiment has as its target HLA-A*29:02. The description is as above. Conditions: source organism: SARS coronavirus Tor2.
The target of a further experiment is HLA-A*30:02. The description is as above. The following applies: source organism: SARS coronavirus Tor2.

For 1 sequence, Kd results are on record in the Immune Epitope Database (IEDB).

The term Kd denotes the constant that tells how readily two partners part at equilibrium.

For NYMPYVFTL, the Kd is at most 1 nM in the experiment with HLA-C*07:02; at most 0.1 nM with HLA-A*24:02; at least 78100 nM in the experiment with HLA-A*01:01; 6.37 nM with HLA-A*23:01; at least 51800 nM with HLA-A*26:01; 369 nM in the experiment with HLA-A*29:02. The equilibrium dissociation constant (Kd) with HLA-A*30:02 was found to be 18200 nM.
